Reference: patent publication US20100003756

Experiments:
Experiment in all cases: cell_activity
[1] = tested on: ZFN SBS 17626 (BAK) (synthetic); conditions: pair 17627/17626, MDCK cells, CEL-I/Surveyor
[2] = tested on: ZFN SBS 17658 (BAX) (synthetic); conditions: pair 17658/17659, MDCK cells, CEL-I/Surveyor
[3] = tested on: ZFN SBS 17622 (BAK) (synthetic); conditions: pair 17622/17623, MDCK cells, CEL-I/Surveyor
[4] = tested on: ZFN SBS 17659 (BAX) (synthetic); conditions: pair 17658/17659, MDCK cells, CEL-I/Surveyor
[5] = tested on: ZFN SBS 10077 (BAX) (synthetic); conditions: BAX ZFNs of Table 1 (pair 10077/10079 inferred), Bak-deficient CHO, 21 of 79 clones Bsl I assay
[6] = tested on: ZFN SBS 10079 (BAX) (synthetic); conditions: BAX ZFNs of Table 1 (pair 10077/10079 inferred), Bak-deficient CHO, 21 of 79 clones Bsl I assay
[7] = tested on: ZFN SBS 17627 (BAK) (synthetic); conditions: pair 17627/17626, MDCK cells, CEL-I/Surveyor
[8] = tested on: ZFN SBS 17623 (BAK) (synthetic); conditions: pair 17622/17623, MDCK cells, CEL-I/Surveyor

Sequence: GATCCACCGGGCAATGCA (double strand) [BAK 17626 half-site]
- activity (% alleles modified) [1]: 1.1

Sequence: GTCCTGGATCCAGCC (double strand) [BAX 17658 half-site]
- activity (% alleles modified) [2]: 8

Sequence: AATGATGCAGCATGA (double strand) [BAK 17622 half-site]
- activity (% alleles modified) [3]: 3.7

Sequence: GGTTGGGTGAGGCCTG (double strand) [BAX 17659 half-site]
- activity (% alleles modified) [4]: 8

Sequence: CAGGGTGGCTGG (double strand) [BAX 10077 half-site]
- activity (% clones modified) [5]: 27

Sequence: GATCCAGACAAG (double strand) [BAX 10079 half-site]
- activity (% clones modified) [6]: 27

Sequence: AGGGGTGGCTGGGTAG (double strand) [BAK 17627 half-site]
- activity (% alleles modified) [7]: 1.1

Sequence: CCGGTGGATCGCGCAGAG (double strand) [BAK 17623 half-site]
- activity (% alleles modified) [8]: 3.7
